Laboratory results as given in patent publication US20170349886A1 (VEGENICS, published 2017).
Substitutions are numbered along the chain they refer to. Where two headings read alike, the source gives them in different places.

B1: VGX-300 (Fc fusion)
chain: YSMTPPTLNITEESHVIDTGDSLSISCRGQHPLEWAWPGAQEAPATGDKDSEDTGVVRDCEGTDARPYCKVLLLHEVHANDTGSYVCYYKYIKARIEGTTAASSYVFVRDFEQPFINKPDTLLVNRKDAMWVPCLVSIPGLNVTLRSQSSVLWPDGQEVVWDDRRGMLVSTPLLHDALYLQCETTWGDQDFLSNPFLVHITGNELYDIQLLPRKSLELLVGEKLVLNCTVWAEFNSGVTFDWDYPGKQAERGKWVPERRSQQTHTELSSILTIHNVSQHDLGSYVCKANNGIQRFRESTEVIVHE
notes: only Ig-like domains I-III were in the molecule; Produced by transient expression in CHO or HEK cells; also called Parent; VGX-300 parent; not shown: Fc region gamma chain (detected with anti-human IgG)
B2: VGX-301-ΔN2 (Fc fusion)
chain: B1 chain with N80Q
notes: also called N2 mutant; not shown: Fc region gamma chain as in VGX-300
B3: Human VEGF-D (ligand, UniProt O43915 93-201, looked up)
chain: FYDIETLKVIDEEWQRTQCSPRETCVEVASELGKSTNTFFKPPCVNVFRCGGCCNEESLICMNTSTSYISKQLFEISVPLTSVPELVPVKVANHTGCKCLPTAPRHPYS
notes: also called VEGF-D ligand
B4: Human VEGF-C (ligand, UniProt P49767 103-227, looked up)
chain: TEETIKFAAAHYNTEILKSIDNEWRKTQCMPREVCIDVGKEFGVATNTFFKPPCVSVYRCGGCCNSEGLQCMNTSTSYLSKTLFEITVPLSQGPKPVTISFANHTSCRCMSKLDVYRQVHSIIRR
notes: also called VEGF-C ligand

Experiments:
Human VEGF-C [1] = target: B4; assay: cell-based or functional assay
Human VEGF-D [2] = target: B3; assay: cell-based or functional assay
Human VEGF-C [3] = target: B4; assay: cell-based or functional assay; remark: listed apart in the source
Human VEGF-C [4] = target: B4; assay: ELISA on plate-coated VEGF-C (2 µg/mL), anti-human IgG-HRP detection; sigmoidal fit of the curve of FIG. 2A
Human VEGF-C [5] = target: B4; assay: cell-based or functional assay; remark: listed apart in the source
Human VEGF-D [6] = target: B3; assay: cell-based or functional assay; remark: listed apart in the source
Human VEGF-D [7] = target: B3; assay: ELISA on plate-coated VEGF-D (2 µg/mL), anti-human IgG-HRP detection; sigmoidal fit of the curve of FIG. 2A
Human VEGF-D [8] = target: B3; assay: cell-based or functional assay; remark: listed apart in the source
VGX-301-ΔN2 = target: B2; assay: SPR, ProteOn XPR36; trap captured on protein G' on a GLM chip, ligand as analyte
Excerpt: (§1) The results of the affinity experiment are provided below in Table 5.

VGX-300 = target: B1; assay: as above
Excerpt: as §1

| IC50 (read off the curve); VEGF-C-driven proliferation (WST-1) of Ba/F3 cells with the VEGFR-2 ECD/EpoR chimeric receptor (Human VEGF-C [1]) [µg/mL] | IC50 (read off the curve); VEGF-D-driven proliferation (WST-1) of Ba/F3 cells with the VEGFR-2 ECD/EpoR chimeric receptor (Human VEGF-D [2]) [µg/mL] | IC50 (read off the curve); VEGF-C-driven proliferation (WST-1) of Ba/F3 cells with the VEGFR-3 ECD/EpoR chimeric receptor (Human VEGF-C [3]) [µg/mL] | EC50 (Human VEGF-C [4]) [µg/mL] | IC50 (read off the curve); VEGF-C-driven proliferation (WST-1) of Ba/F3 cells with the VEGFR-3 ECD/EpoR chimeric receptor (Human VEGF-C [5]) [µg/mL] | IC50 (read off the curve); VEGF-D-driven proliferation (WST-1) of Ba/F3 cells with the VEGFR-3 ECD/EpoR chimeric receptor (Human VEGF-D [6]) [µg/mL] | EC50 (Human VEGF-D [7]) [µg/mL] | IC50 (read off the curve); VEGF-D-driven proliferation (WST-1) of Ba/F3 cells with the VEGFR-3 ECD/EpoR chimeric receptor (Human VEGF-D [8]) [µg/mL] | Kd (VGX-301-ΔN2) [nM] | Kd (VGX-300) [nM] | koff (VGX-301-ΔN2) [s⁻¹] | kon (VGX-301-ΔN2) [M⁻¹ s⁻¹] | koff (VGX-300) [s⁻¹] | kon (VGX-300) [M⁻¹ s⁻¹] | Binder |
| --- | --- | --- | --- | --- | --- | --- | --- | --- | --- | --- | --- | --- | --- | --- |
| ~0.02 | ~3 | ~0.007 | 0.058 | ~0.01 | ~0.4 | 0.504 | ~0.5 |  |  |  |  |  |  | B1 |
|  |  | ~0.005 | 0.0295 |  |  | 0.105 | ~0.3 |  |  |  |  |  |  | B2 |
|  |  |  |  |  |  |  |  | 0.677 | 0.625 |  |  |  |  | B3 |
|  |  |  |  |  |  |  |  | 0.0037 | 0.0051 | 1.03e-05 | 2.79e+06 | 1.11e-05 | 2.18e+06 | B4 |
